Starred links: 1 amine or outer side, 2 acyl side, 3 side chain; linkers in the order of their positions; H or OH if unused. Non-standard residues stand in square brackets, D forms with d. *: point of attachment. AC4Abu = α-carboxy-4-aminobutyric acid, O=C(C(CCN[*:1])C(=O)[*:3])[*:2]; Oic = O=C(O)[C@@H]1C[C@@H]2CCCC[C@@H]2N1; Phe(4-Cl) = N[C@@H](Cc1ccc(Cl)cc1)C(=O)O; dPhe(4-Cl) = N[C@H](Cc1ccc(Cl)cc1)C(=O)O; γGlu = O=C(O)[C@H](CCC(=O)[*:2])N[*:1]; NMeR = CN[C@@H](CCCNC(=N)N)C(=O)O; Tridecanoyl = CCCCCCCCCCCCC(=O)*; Cha = N[C@@H](CC1CCCCC1)C(=O)O; Nle = CCCC[C@H](N)C(=O)O; Deg = CCC(N)(CC)C(=O)O; AEEA = NCCOCCOCC(=O)O
T1: human APJ receptor (human, UniProt P35414 1-380)
T1 sequence (looked up): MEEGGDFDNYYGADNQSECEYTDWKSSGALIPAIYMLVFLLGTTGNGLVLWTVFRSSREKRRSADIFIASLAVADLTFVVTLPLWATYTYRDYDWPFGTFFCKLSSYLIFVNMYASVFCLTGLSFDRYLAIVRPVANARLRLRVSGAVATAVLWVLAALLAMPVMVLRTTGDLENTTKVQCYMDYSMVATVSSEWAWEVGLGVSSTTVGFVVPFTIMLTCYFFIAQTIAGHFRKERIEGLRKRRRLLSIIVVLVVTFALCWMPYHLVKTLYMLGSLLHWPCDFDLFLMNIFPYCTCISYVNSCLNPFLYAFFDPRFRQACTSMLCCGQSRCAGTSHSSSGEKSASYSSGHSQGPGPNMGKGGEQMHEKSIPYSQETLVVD

T2: rat APJ receptor (rat, UniProt Q9JHG3 1-377)
T2 sequence (looked up): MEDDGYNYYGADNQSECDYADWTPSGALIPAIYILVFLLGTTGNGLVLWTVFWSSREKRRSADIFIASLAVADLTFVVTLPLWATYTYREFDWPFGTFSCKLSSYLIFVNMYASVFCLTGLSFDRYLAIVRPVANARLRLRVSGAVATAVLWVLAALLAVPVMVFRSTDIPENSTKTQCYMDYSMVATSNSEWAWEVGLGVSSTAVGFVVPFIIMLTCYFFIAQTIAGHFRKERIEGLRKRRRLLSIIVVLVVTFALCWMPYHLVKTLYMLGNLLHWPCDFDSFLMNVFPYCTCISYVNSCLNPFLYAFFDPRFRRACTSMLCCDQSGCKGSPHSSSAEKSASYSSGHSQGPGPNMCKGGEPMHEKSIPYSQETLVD


Assays:
[1] = molecular target: T1, human APJ receptor; experiment: cell-based or functional assay
[2] = molecular target: T2, rat APJ receptor; experiment: cell-based or functional assay

| EC50 Human APJ Receptor (GTPγS assay) [1] [nM] | EC50 Rat APJ Receptor (GTPγS assay) [2] [nM] | Binder |
| --- | --- | --- |
| 0.11 | 0.57 | Tridecanoyl-[γGlu][AEEA][AEEA]QRP[NMeR][Cha]SHKG[Oic][Nle]P[Phe(4-Cl)]-OH (SMILES CCCCCCCCCCCCC(=O)N[C@@H](CCC(=O)NCCOCCOCC(=O)NCCOCCOCC(=O)N[C@@H](CCC(N)=O)C(=O)N[C@@H](CCCNC(=N)N)C(=O)N1CCC[C@H]1C(=O)N(C)[C@@H](CCCNC(=N)N)C(=O)N[C@@H](CC1CCCCC1)C(=O)N[C@@H](CO)C(=O)N[C@@H](Cc1c[nH]cn1)C(=O)N[C@@H](CCCCN)C(=O)NCC(=O)N1[C@H](C(=O)N[C@@H](CCCC)C(=O)N2CCC[C@H]2C(=O)N[C@@H](Cc2ccc(Cl)cc2)C(=O)O)C[C@@H]2CCCC[C@@H]21)C(=O)O) [Apelin polypeptide SEQ ID NO: 390] |
| 6.12 | 5.42 | Tridecanoyl-[γGlu][AEEA][AEEA]QRP[NMeR][Cha]SHKG[Oic][Nle]P[dPhe(4-Cl)]-OH (SMILES CCCCCCCCCCCCC(=O)N[C@@H](CCC(=O)NCCOCCOCC(=O)NCCOCCOCC(=O)N[C@@H](CCC(N)=O)C(=O)N[C@@H](CCCNC(=N)N)C(=O)N1CCC[C@H]1C(=O)N(C)[C@@H](CCCNC(=N)N)C(=O)N[C@@H](CC1CCCCC1)C(=O)N[C@@H](CO)C(=O)N[C@@H](Cc1c[nH]cn1)C(=O)N[C@@H](CCCCN)C(=O)NCC(=O)N1[C@H](C(=O)N[C@@H](CCCC)C(=O)N2CCC[C@H]2C(=O)N[C@H](Cc2ccc(Cl)cc2)C(=O)O)C[C@@H]2CCCC[C@@H]21)C(=O)O) [Apelin polypeptide SEQ ID NO: 381] |
| 1 | 0.511 | Tridecanoyl-[AC4Abu][AEEA][AEEA]QRP[NMeR][Cha]SHKG[Oic][Nle][Phe(4-Cl)]-OH (SMILES CCCCCCCCCCCCC(=O)NCCC(C(=O)O)C(=O)NCCOCCOCC(=O)NCCOCCOCC(=O)N[C@@H](CCC(N)=O)C(=O)N[C@@H](CCCNC(=N)N)C(=O)N1CCC[C@H]1C(=O)N(C)[C@@H](CCCNC(=N)N)C(=O)N[C@@H](CC1CCCCC1)C(=O)N[C@@H](CO)C(=O)N[C@@H](Cc1c[nH]cn1)C(=O)N[C@@H](CCCCN)C(=O)NCC(=O)N1[C@H](C(=O)N[C@@H](CCCC)C(=O)N[C@@H](Cc2ccc(Cl)cc2)C(=O)O)C[C@@H]2CCCC[C@@H]21) [Apelin polypeptide SEQ ID NO: 409] |

More lines, now with the values behind:

| Binder | EC50 Human APJ Receptor (GTPγS assay) [1] [nM] | EC50 Rat APJ Receptor (GTPγS assay) [2] [nM] |
| --- | --- | --- |
| Tridecanoyl-[AC4Abu][AEEA][AEEA]QRP[NMeR][Cha]SHKG[Oic][Nle][dPhe(4-Cl)]-OH (SMILES CCCCCCCCCCCCC(=O)NCCC(C(=O)O)C(=O)NCCOCCOCC(=O)NCCOCCOCC(=O)N[C@@H](CCC(N)=O)C(=O)N[C@@H](CCCNC(=N)N)C(=O)N1CCC[C@H]1C(=O)N(C)[C@@H](CCCNC(=N)N)C(=O)N[C@@H](CC1CCCCC1)C(=O)N[C@@H](CO)C(=O)N[C@@H](Cc1c[nH]cn1)C(=O)N[C@@H](CCCCN)C(=O)NCC(=O)N1[C@H](C(=O)N[C@@H](CCCC)C(=O)N[C@H](Cc2ccc(Cl)cc2)C(=O)O)C[C@@H]2CCCC[C@@H]21) [Apelin polypeptide SEQ ID NO: 410] | 2.47 | 2.68 |
| Tridecanoyl-[AC4Abu][AEEA][AEEA]QRP[NMeR][Cha]SHKG[Oic][Nle][Deg][Phe(4-Cl)]-OH (SMILES CCCCCCCCCCCCC(=O)NCCC(C(=O)O)C(=O)NCCOCCOCC(=O)NCCOCCOCC(=O)N[C@@H](CCC(N)=O)C(=O)N[C@@H](CCCNC(=N)N)C(=O)N1CCC[C@H]1C(=O)N(C)[C@@H](CCCNC(=N)N)C(=O)N[C@@H](CC1CCCCC1)C(=O)N[C@@H](CO)C(=O)N[C@@H](Cc1c[nH]cn1)C(=O)N[C@@H](CCCCN)C(=O)NCC(=O)N1[C@H](C(=O)N[C@@H](CCCC)C(=O)NC(CC)(CC)C(=O)N[C@@H](Cc2ccc(Cl)cc2)C(=O)O)C[C@@H]2CCCC[C@@H]21) [Apelin polypeptide SEQ ID NO: 411] | 2.1 | 2.94 |
